Test results published in the supplement of paper PMC10567573.

B1: DFFB (parent)
chain: KLNCDPSRIYKPQTRLKRKQPVRK
B2: CPOX (parent)
chain: HAPTIHFNYRYFEVEEADGNKQWW

Variants of: B1
Experiment: protein stability index of a GFP-peptide fusion (GPS, HEK-293T) (PSI 1-6); higher = more stable
Settings: c terminus: a fixed tail appended
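Further: lentivirally expressed fusions sorted by FACS into six bins by GFP to DsRed ratio, PSI derived from sequencing read proportions per bin multiplied by bin number.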

Protein stability index: each site, then its substitutions
T14: P 3.11; Q 3.31; R 3.52; S 3.19; V 3.51; W 3.95; Y 3.49
R15: A 2.82; C 3.24; D 3.09; E 3.68; F 3.25; G 3.58; H 3.59; I 3.52; K 3.24; L 2.69; M 3.21; N 3.26; P 3.6; Q 2.67; S 3.96; T 3.76; V 3.49; W 3.02; Y 2.17
L16: A 3.34; C 2.95; D 2.92; E 4.44; F 2.8; G 4.16; H 3.9; I 3.67; K 3.07; M 3.23; N 3.85; P 3.83; Q 3.9; R 3.48; S 3.6; T 4.05; V 3.88; W 3; Y 3.77
K17: A 2.98; C 3.38; D 2.17; E 3.42; F 3.45; G 4.14; H 2.55; I 3.21; L 2.14; M 3.45; N 3.21; P 3; Q 2.9; R 3.18; S 3.35; T 3.14; V 3.25; W 3.19; Y 3.68
R18: A 2.94; C 3.43; D 3.34; E 4.21; F 3.44; G 3.28; H 3.13; I 3.32; K 3.76; L 3.62; M 3.68; N 3.23; P 3.83; Q 3.4; S 3.37; T 3.96; V 3.89; W 3.03; Y 3.05
K19: A 3.66; C 2.69; D 3.53; E 2.93; F 1.86; G 2.63; H 3.49; I 3.18; L 3.14; M 3.31; N 3.54; P 3.25; Q 3.34; R 3.9; S 2.78; T 3.52; V 2.96; W 2.94; Y 2.89
Q20: A 3.38; C 3.6; D 3.35; E 3.04; F 3.15; G 4.19; H 3.12; I 3.69; K 3.7; M 4.04; N 3.66; P 2.98; R 3.59; S 2.75; T 4.39; V 3.54; W 3.24; Y 2.91
P21: A 4.07; C 3.36; D 2.71; E 3.28; F 3.37; G 3.49; H 3.41; I 3.16; K 2.75; M 3.76; N 3.67; Q 3.37; R 3.31; S 3.13; T 3.86; V 3.31; W 3.45; Y 3.91
V22: A 3.77; C 3.41; D 3.67; E 3.31; F 3.48; G 4.39; H 3.75; I 3.78; K 3.14; L 3.62; M 3.42; N 3.62; P 3.87; Q 3.39; R 2.03; S 4.09; T 3.64; W 3.26; Y 2.22
R23: A 3.39; C 3.21; D 3.83; E 3.34; G 3.35; H 3.43; I 3.53; K 3.01; L 2.81; M 3.1; P 3.84; Q 3.9; S 3.49; T 3.77; V 3.25; W 2.59; Y 3.48
K24: A 4.04; C 2.96; D 3.56; E 3.99; F 2.7; G 3.23; H 3.15; I 3.03; L 2.87; M 3.11; N 3.44; P 3.32; Q 3.18; R 3.96; S 4.02; T 4.04; V 2.49; Y 3.11

Variants of: B2
Experiment: as above
Settings: c terminus: a fixed tail appended

Protein stability index, by site and new letter:
H1: A 2.46; C 2.15; D 1.84; E 2.42; G 3.62; I 2.05; K 2.37; L 1.92; M 2.15; N 2.54; P 2.62; Q 2.96; R 3.24; S 2.89; T 2.91; V 2.69; W 2.62
A2: C 1.99; D 2.94; E 3.45; F 2.26; G 2.43; H 2.44; I 1.73; K 2.38; L 2.11; M 2.16; N 2.46; P 2.34; Q 3.31; R 2.73; S 2.78; T 2.5; V 2.85; W 2.02; Y 2.33
P3: A 1.97; C 1.62; D 2.67; E 1.99; F 2.6; G 2.85; H 2.2; I 2.92; K 1.93; L 2.49; M 1.97; N 2.09; Q 1.65; R 2.69; S 1.99; T 2.38; V 1.8; W 1.17; Y 2.39
T4: A 2.38; C 2.01; D 2.96; E 2.29; F 2.12; G 2.57; H 2.62; I 2.21; K 2.26; L 2.31; M 1.97; N 2.63; P 2.7; Q 2.66; R 1.8; S 2.8; V 2.45; W 2.15; Y 1.39
I5: A 2.69; C 2.4; D 3.41; E 3.55; F 2.44; G 2.25; H 2.82; K 2.29; L 2.14; M 3.15; N 2.9; P 2.78; Q 2.7; R 2.64; S 2.65; T 2.78; V 2.43; W 2.47; Y 1.97
H6: A 2.19; C 1.9; D 2.92; E 2.66; F 1.52; G 2.77; I 2.34; K 2.36; L 1.82; M 1.94; N 2.5; P 1.89; Q 2.52; R 2.04; S 2.31; T 2.42; V 1.61; W 1.59; Y 2.68
F7: A 3.4; C 2.35; D 2.89; E 3.06; G 3.52; H 3.35; I 3.05; K 3.03; L 2.86; M 2.26; N 2.71; P 2.8; Q 3.21; R 2.83; S 3.02; T 3.15; V 2.58; W 2.96; Y 2.48
N8: A 2.22; D 2.75; E 2.1; F 1.79; G 2.36; I 1.26; K 1.67; M 2.53; P 2.69; Q 2.48; R 2.83
